Source: paper PMC3378519, “Contribution of DEAF1 Structural Domains to the Interaction with the Breast Cancer Oncogene LMO4” (PLoS ONE, 2012)

B1: MBP-fused DEAF1_(335–485), recombinant (domain or fragment, mouse, UniProt Q9Z1T5-1 335-485, looked up)
chain: TVTPSGQITTSGALTFDRASTVEATAVISESPAQGDVFAGATVQEAGVQPPCRVGHPEPHYPGYQDSCQIAPFPEAALPTSHPKIVLTSLPALAVPPSTPTKAVSPTVVSGLEMSEHRSWLYLEEMVNSLLNTAQQLKTLFEQAKQASSCR
notes: DEAF1, mouse, NM_016874; pMALC2 construct; not shown: MBP, N-terminal, kept
B2: MBP-fused full length DEAF1, recombinant (natural protein, mouse, UniProt Q9Z1T5-1 1-566, looked up)
chain: MEDSDSAAKQLGLAEAAAVAAAAAVAAAAAAAAESEAEEPVLSRDEDSEEDADSEAERETRRVTAVAVMAAESGHMDMGTEALPSPDEAAAAAAAFAEVTTVTVANVGSSADNVFTTSVANAASISGHVLSGRTALQIGDSLNTEKATLIVVHTDGSIVETTGLKGPAAPLTPGPQSPPTPLAPGQEKGGTKYNWDPSVYDSELPVRCRNISGTLYKSRLGSGGRGRCIKQGENWYSPTEFEAMAGRASSKDWKRSIRYAGRPLQCLIQDGILNPHAASCTCAACCDDMTLSGPVRLFVPYKRRKKENELPTTPVKKDSPKNITLLPATAATTFTVTPSGQITTSGALTFDRASTVEATAVISESPAQGDVFAGATVQEAGVQPPCRVGHPEPHYPGYQDSCQIAPFPEAALPTSHPKIVLTSLPALAVPPSTPTKAVSPTVVSGLEMSEHRSWLYLEEMVNSLLNTAQQLKTLFEQAKQASSCREAAVTQARMQVDTERKEQSCVNCGREAMSECTGCHKVNYCSTFCQRKDWKDHQHVCGQSASVTVQADDVHVEESVIEKVAV
notes: DEAF1, mouse, NM_016874, full length; pMALC2 construct; about 10 subunits by SEC-MALLS, mixture of species; not shown: MBP, N-terminal, kept
B3: GB1-tagged DEAF1_(454–487), isolated coiled coil, recombinant (domain or fragment, mouse, UniProt Q9Z1T5-1 454-487, looked up)
chain: WLYLEEMVNSLLNTAQQLKTLFEQAKQASSCREA
notes: DEAF1, mouse, NM_016874; source: E. coli Rosetta 2, purified (DEAE sepharose, Ni-NTA); not shown: His6, N-terminal, kept; GB1 (Gβ-1 domain of streptococcal protein G), N-terminal, kept
B4: DEAF1_(404–479), recombinant protein for SEC-MALLS (domain or fragment, mouse, UniProt Q9Z1T5-1 404-479, looked up)
chain: IAPFPEAALPTSHPKIVLTSLPALAVPPSTPTKAVSPTVVSGLEMSEHRSWLYLEEMVNSLLNTAQQLKTLFEQAK
notes: DEAF1, mouse, NM_016874; source: recombinant

Target: the molecule itself
Test: SEC-MALS; SEC-MALLS; about 200 µg of protein on a Superose 12 column with in-line MALLS detector; weight-averaged molecular weight in solution

| Protein | stoichiometry N | binding result |
| --- | --- | --- |
| B1 | 4 subunits | – |
| B2 | ~10 subunits | – |
| B3 | 4 subunits | – |
| B4 | – | binds |
